Source: patent US20150065381A1
Several values for one entry are separate records, joined by “and”; a condition that tells them apart may be missing. Identical values can stand only once.

How the values were obtained:
[1] = target: HIV-1 envelope clone G-011.c05 (multiclade gp160 clone panel) (HIV-1); assay: capture ELISA, plate 2, mAb 0.8 ug/ml
[2] = target: HIV-1 envelope of gp160 clone AG-010.c11 (HIV-1); assay: capture ELISA, plate 2, mAb 0.8 ug/ml
[3] = target: HIV-1 envelope of gp160 clone B-Acute-009-c08 (HIV-1); assay: capture ELISA, plate 2, mAb 0.8 ug/ml
[4] = target: HIV-1 JRCSF envelope (HIV-1) (UniProt P20871); assay: capture ELISA, plate 2, mAb 0.8 ug/ml
[5] = target: HIV-1 envelope of gp160 clone B-Acute-008.c11 (HIV-1); assay: capture ELISA, plate 2, mAb 0.8 ug/ml
[6] = target: HIV-1 envelope clone BF-002.c08 (multiclade gp160 clone panel) (HIV-1); assay: capture ELISA, plate 2, mAb 0.8 ug/ml
[7] = target: HIV-1 envelope of gp160 clone AG-010.c14 (HIV-1); assay: capture ELISA, plate 2, mAb 0.8 ug/ml
[8] = target: HIV-1 envelope clone F1-002.c11 (multiclade gp160 clone panel) (HIV-1); assay: capture ELISA, plate 2, mAb 0.3 ug/ml
[9] = target: HIV-1 envelope clone G-011.c05 (multiclade gp160 clone panel) (HIV-1); assay: capture ELISA, plate 2, mAb 0.3 ug/ml
[10] = target: HIV-1 envelope of gp160 clone AG-010.c11 (HIV-1); assay: capture ELISA, plate 2, mAb 0.3 ug/ml
[11] = target: HIV-1 envelope of gp160 clone B-Acute-010.c08 (HIV-1); assay: capture ELISA, plate 2, mAb 0.3 ug/ml
[12] = target: HIV-1 envelope clone G-011.c02 (multiclade gp160 clone panel) (HIV-1); assay: capture ELISA, plate 2, mAb 0.3 ug/ml
[13] = target: HIV-1 envelope of gp160 clone B-Acute-009-c08 (HIV-1); assay: capture ELISA, plate 2, mAb 0.3 ug/ml
[14] = target: HIV-1 JRCSF envelope (HIV-1) (UniProt P20871); assay: capture ELISA, plate 2, mAb 0.3 ug/ml
[15] = target: HIV-1 envelope clone F1-002.c16 (multiclade gp160 clone panel) (HIV-1); assay: capture ELISA, plate 2, mAb 0.3 ug/ml
[16] = target: HIV-1 envelope clone BF-002.c05 (multiclade gp160 clone panel) (HIV-1); assay: capture ELISA, plate 2, mAb 0.3 ug/ml
[17] = target: HIV-1 envelope of gp160 clone B-Acute-008.c11 (HIV-1); assay: capture ELISA, plate 2, mAb 0.3 ug/ml
[18] = target: HIV-1 envelope clone BF-002.c08 (multiclade gp160 clone panel) (HIV-1); assay: capture ELISA, plate 2, mAb 0.3 ug/ml
[19] = target: HIV-1 envelope of gp160 clone AG-010.c14 (HIV-1); assay: capture ELISA, plate 2, mAb 0.3 ug/ml
[20] = target: HIV-1 envelope of gp160 clone B-Chronic-014.c02 (HIV-1); assay: capture ELISA, plate 2, mAb 0.3 ug/ml
[21] = target: HIV-1 envelope of gp160 clone B-Acute-010.c09 (HIV-1); assay: capture ELISA, plate 2, mAb 0.3 ug/ml
[22] = target: aMLV envelope (from lysed pseudovirus); assay: antigen capture ELISA, mAb 2.5 ug/ml, plate 2
[23] = target: BG505 envelope (gp120 monomer released from lysed pseudovirus) (HIV-1); assay: antigen capture ELISA, mAb 2.5 ug/ml, plate 2
[24] = target: aMLV envelope (from lysed pseudovirus); assay: antigen capture ELISA, mAb 0.3 ug/ml, plate 2
[25] = target: BG505 envelope (gp120 monomer released from lysed pseudovirus) (HIV-1); assay: antigen capture ELISA, mAb 0.3 ug/ml, plate 2
[26] = target: aMLV envelope (from lysed pseudovirus); assay: antigen capture ELISA, mAb 0.8 ug/ml, plate 1
[27] = target: BG505 envelope (gp120 monomer released from lysed pseudovirus) (HIV-1); assay: antigen capture ELISA, mAb 0.8 ug/ml, plate 1
[28] = target: aMLV envelope (from lysed pseudovirus); assay: antigen capture ELISA, mAb 0.3 ug/ml, plate 1
[29] = target: BG505 envelope (gp120 monomer released from lysed pseudovirus) (HIV-1); assay: antigen capture ELISA, mAb 0.3 ug/ml, plate 1
[30] = target: HIV-1 envelope of gp160 clone B-Acute-010.c08 (HIV-1); assay: capture ELISA, plate 2, mAb 2.5 ug/ml
[31] = target: HIV-1 envelope clone G-011.c02 (multiclade gp160 clone panel) (HIV-1); assay: capture ELISA, plate 2, mAb 2.5 ug/ml
[32] = target: HIV-1 envelope of gp160 clone B-Acute-010.c09 (HIV-1); assay: capture ELISA, plate 2, mAb 2.5 ug/ml
[33] = target: aMLV envelope (from lysed pseudovirus); assay: antigen capture ELISA, mAb 0.8 ug/ml, plate 2
[34] = target: BG505 envelope (gp120 monomer released from lysed pseudovirus) (HIV-1); assay: antigen capture ELISA, mAb 0.8 ug/ml, plate 2

| Substance | ELISA OD [1] | ELISA OD [2] | ELISA OD [3] | ELISA OD [4] | ELISA OD [5] | ELISA OD [6] | ELISA OD [7] | ELISA OD [8] | ELISA OD [9] | ELISA OD [10] | ELISA OD [11] | ELISA OD [12] | ELISA OD [13] | ELISA OD [14] | ELISA OD [15] | ELISA OD [16] | ELISA OD [17] | ELISA OD [18] | ELISA OD [19] | ELISA OD [20] | other results |
| --- | --- | --- | --- | --- | --- | --- | --- | --- | --- | --- | --- | --- | --- | --- | --- | --- | --- | --- | --- | --- | --- |
| PG16 (antibody) | 0.097 OD | 0.173 OD | 0.058 OD | 0.135 OD and 0.136 OD | 0.146 OD | 0.103 OD | 0.51 OD | 0.098 OD | 0.095 OD | 0.167 OD | 0.11 OD | 0.09 OD | 0.077 OD | 0.133 OD and 0.167 OD | 0.224 OD | 0.361 OD | 0.141 OD | 0.097 OD | 0.337 OD | 0.222 OD | ELISA OD [21]: 0.071 OD; ELISA OD [22]: 0.067 OD and 0.069 OD; ELISA OD [23]: 0.103 OD; ELISA OD [24]: 0.096 OD and 0.103 OD; ELISA OD [25]: 0.067 OD; ELISA OD [26]: 0.073 OD and 0.056 OD; ELISA OD [27]: 0.165 OD; ELISA OD [28]: 0.053 OD and 0.096 OD; ELISA OD [29]: 0.067 OD; ELISA OD [30]: 0.171 OD; ELISA OD [31]: 0.07 OD; ELISA OD [32]: 0.155 OD; ELISA OD [33]: 0.072 OD and 0.064 OD; ELISA OD [34]: 0.165 OD |
| PGV04 (antibody) | 0.168 OD | 0.103 OD | 0.095 OD | 1.03 OD and 1.35 OD | 0.094 OD | 1.37 OD | 0.169 OD | 0.064 OD | 0.123 OD | 0.103 OD | 0.303 OD | 0.189 OD | 0.075 OD | 0.525 OD and 0.588 OD | 0.142 OD | 1 OD | 0.129 OD | 0.758 OD | 0.096 OD | 1.52 OD | ELISA OD [21]: 0.424 OD; ELISA OD [22]: 0.085 OD and 0.089 OD; ELISA OD [23]: 1.04 OD; ELISA OD [24]: 0.095 OD and 0.115 OD; ELISA OD [25]: 0.45 OD; ELISA OD [26]: 0.053 OD and 0.117 OD; ELISA OD [27]: 0.745 OD; ELISA OD [28]: 0.052 OD and 0.057 OD; ELISA OD [29]: 0.45 OD; ELISA OD [30]: 1.57 OD; ELISA OD [31]: 0.712 OD; ELISA OD [32]: 2.1 OD; ELISA OD [33]: 0.085 OD; ELISA OD [34]: 0.745 OD |
